Laboratory results as given in patent US20040072162A1, “Hiv peptides and nucleic acids encoding them for diagnosis and control of hiv infection” (priority 2000, published 2004).

Target: HLA-A2 MHC-I (HLA-A*0204, affinity purified from the EBV transformed cell line RML) (human)

| Binder | Kd [nM] |
| --- | --- |
| TLQEQIGWM (modifications not checked) [8.56nat] | 245 |
| ALGIIQAQ (modifications not checked) [8.116nat] | 97 |
| LKTAVQMAV (modifications not checked) [8.33nat] | 1330 |
| FLWMGYELH (modifications not checked) [8.21nat] | 445 |
| ALVEMGHHA (modifications not checked) [8.3nat] | 160 |
| TGNPPIPV (modifications not checked) [8.123natG] | 700 |
| GMGSPQILV (modifications not checked) [8.15natM (4.40)] | 120 |
| YIKIFIMIV (modifications not checked) [8.93nat] | 24 |
| ATLEEMMTA (modifications not checked) [8.65nat] | 77 |
| SLVKHHMYI (modifications not checked) [4.14 variant] | 123 |
| LCFGWCFKL (modifications not checked) [8.45natC] | 580 |
| SLVKHHMYV (modifications not checked) [4.14] | 21 |
| ILVESPAVL (modifications not checked) [8.16nat] | 13 |
| LNFPISPI (modifications not checked) [8.115nat] | 29 |
| VVAAIIAIV (modifications not checked) [8.1nat] | 260 |
| NIWATHACV (modifications not checked) [8.75natV] | 57 |
| WCFKLVPV (modifications not checked) [8.121nat] | 200 |
| YLAWVPAHK (modifications not checked) [8.42nat] | 200 |
| RLAFHHMAR (modifications not checked) [8.47nat] | 670 |
| GLADQLIHM (modifications not checked) [8.11natM] | 135 |
| RTLNAWVKV (modifications not checked) [8.54nat] | 170 |
| ALAALITPK (modifications not checked) [8.12nat] | 62 |
| FLGAAGST (modifications not checked) [8.135nat] | 870 |
| WLFKLVPV (modifications not checked) [8.121mod] | 183 |
| NTVATLYCV (modifications not checked) [8.49nat] | 170 |
| KTKPPLPSV (modifications not checked) [8.10natT] | 39 |
| LQLPPIERL (modifications not checked) [8.14nat] | 7.3 |
| SGGDPEIV (modifications not checked) [8.130nat] | 950 |
| ALGPAATLE (modifications not checked) [8.64nat] | 830 |
| AIEAQQHLL (modifications not checked) [8.88nat] | 850 |
